US7611713
Read-outs that look alike come from different tables or passages of the source.

Key:
[1] = biological target: HLA-DR1 (DRB1*0101) (human); assay: competition with standard peptide for purified HLA-DR, relative to standard
[2] = biological target: HLA-DR4w4 (DRB1*0401) (human); assay: as above
[3] = biological target: HLA-DR5w11 (DRB1*1101) (human); assay: as above
[4] = biological target: HLA-DR7 (DRB1*0701) (human); assay: as above
HLA-A*0201 (human) [5] = biological target: HLA-A*0201 (human)
HLA-A*1101 (human) [6] = biological target: HLA-A*1101 (human)
[7] = biological target: HLA-B*0701 (as printed in the head of Table XXII) (human); assay: competitive inhibition of radiolabeled standard peptide binding to purified HLA
HLA-B*0702 (human) = assay: competition with radiolabeled standard peptide for purified HLA, gel filtration
[8] = biological target: HLA-DR1 (DRB1*0101) (human)
[9] = biological target: HLA-DR5w11 (DRB1*1101) (human)
[10] = biological target: HLA-DR7 (DRB1*0701) (human)
[11] = biological target: HLA-DR2w2β1 (DRB1*1501) (human)
[12] = biological target: HLA-DR1 (DRB1*0101) (human); assay: HLA class II peptide binding assay, ratio to standard peptide; details: remark: other sources report otherwise
[13] = biological target: HLA-DR4w4 (DRB1*0401) (human); assay: as above; details: remark: other sources report otherwise
[14] = biological target: HLA-DR5w11 (DRB1*1101) (human); assay: as above; details: remark: other sources report otherwise
[15] = biological target: HLA-DR7 (DRB1*0701) (human); assay: as above; details: remark: other sources report otherwise
HLA-A*0201 (human) [16] = assay: competitive inhibition of radiolabeled standard peptide binding to purified HLA
[17] = biological target: HLA-DR2w2β1 (DRB1*1501) (human); assay: HLA class II peptide binding assay, ratio to standard peptide
[18] = biological target: HLA-DR3 (DRB1*0301) (human); assay: as above; details: remark: other sources report otherwise
[19] = biological target: HLA-DR4w15 (DRB1*0405) (human); assay: as above; details: remark: other sources report otherwise
[20] = biological target: HLA-DR6w19 (DRB1*1302) (human); assay: as above; details: remark: other sources report otherwise
HLA-A*1101 (human) [21] = biological target: HLA-A*1101 (human); remark: listed apart in the source
[22] = biological target: HLA-DRw53 (DRB4*0101) (human); assay: competition with standard peptide for purified HLA-DR, relative to standard
[23] = biological target: HLA-DR2w2β2 (DRB5*0101) (human)
[24] = biological target: HLA-DR6w19 (DRB1*1302) (human)
HLA-B*5101 (human) = assay: competition with radiolabeled standard peptide for purified HLA, gel filtration; details: remark: other sources report otherwise
HLA-B*5401 (human) = assay: as above; details: remark: other sources report otherwise
[25] = remark: other sources report otherwise

B1: … (peptide)
peptide: IVGLLGFAAPFTQCG
modifications: not checked
B1 was tested, and the binding affinity ratio (IC50 of standard peptide / IC50 of test peptide) [1] was 0.02, the binding affinity ratio (IC50 of standard peptide / IC50 of test peptide) [2] was -0.0007 and the binding affinity ratio (IC50 of standard peptide / IC50 of test peptide) [3] was -0.0002. For the same binder, the binding affinity ratio (IC50 of standard peptide / IC50 of test peptide) [4] was 0.0009.

B2: HBV NUC 141 peptide … (peptide)
peptide: STLPETTVV
modifications: not checked
B2 showed a binding affinity ratio (IC50 of standard peptide / IC50 of test peptide) (HLA-A*0201 (human) [5]) of 0.0019.

B3: HBV NUC 175 peptide … (peptide)
peptide: TTVVRRRGR
modifications: not checked
In the case of B3, the binding affinity ratio (IC50 of standard peptide / IC50 of test peptide) (HLA-A*1101 (human) [6]) is reported as 0.0005, the binding affinity ratio (IC50 of standard peptide / IC50 of test peptide) (HLA-A*3101 (human)) is reported as 0.25 and the binding affinity ratio (IC50 of standard peptide / IC50 of test peptide) (HLA-A*3301 (human)) is reported as 0.14. The binding affinity ratio (IC50 of standard peptide / IC50 of test peptide) (HLA-A*6801 (human)) was 0.0095.

B4: MAGE3 196 (peptide)
peptide: MPKAGLLII
modifications: not checked
In the case of B4, the IC50 [7] is reported as 940 nM.

B5: HBV POL 398 peptide … (peptide)
peptide: VPNLQSLTNL
modifications: not checked
B5 showed a binding affinity ratio (IC50 of standard peptide / IC50 of test peptide) (HLA-B*0702 (human)) of 0.0006.

B6: … (peptide)
peptide: WPKFAVPNLQSLTNL
modifications: not checked
Binder B6 has a binding affinity ratio (IC50 of standard peptide / IC50 of test peptide) [8] of 0.0007, a binding affinity ratio (IC50 of standard peptide / IC50 of test peptide) [9] of 0.0002 and a binding affinity ratio (IC50 of standard peptide / IC50 of test peptide) [10] of 0.0008.

B7: HBV POL 752 peptide … (peptide)
peptide: LLGCAANWI
modifications: not checked
B7 was tested, and the binding affinity ratio (relative to standard peptide) (HLA-A*0201 (human) [5]) was 0.0011.

B8: HBV X 133 peptide VLGGCRHK (peptide)
peptide: VLGGCRHK
modifications: not checked
Work on B8 yielded a binding affinity ratio (IC50 of standard peptide / IC50 of test peptide) (HLA-A*3101 (human)) of -0.0005 and a binding affinity ratio (IC50 of standard peptide / IC50 of test peptide) (HLA-A*3301 (human)) of -0.0009.

B9: … (peptide)
peptide: AEDLNLGNLNVSIPW
modifications: not checked
B9 gave a binding affinity ratio (IC50 of standard peptide / IC50 of test peptide) [1] of 0.0001, a binding affinity ratio (IC50 of standard peptide / IC50 of test peptide) [2] of -0.0007 and a binding affinity ratio (IC50 of standard peptide / IC50 of test peptide) [3] of -0.0002. For the same binder, the binding affinity ratio (IC50 of standard peptide / IC50 of test peptide) [4] was -0.0003.

B10: HBV NUC 45 peptide … (peptide)
peptide: LSFLPSDFF
modifications: not checked
In the case of B10, the binding affinity ratio (IC50 of standard peptide / IC50 of test peptide) (HLA-A*0301 (human)) is reported as 0.0006.

B11: … (peptide)
peptide: VGNFTGLYSSTVPVF
modifications: not checked
For B11, the binding affinity ratio (IC50 of standard peptide / IC50 of test peptide) [11] was 0.01 and the binding affinity ratio (IC50 of standard peptide / IC50 of test peptide) [10, 25] was 0.56.

B12: HBV ENV 254 peptide LIFLLVLL (peptide)
peptide: LIFLLVLL
modifications: not checked
B12 was tested, and the binding affinity ratio (relative to standard peptide) (HLA-A*0201 (human) [5]) was 0.0025.

B13: HBV NUC 99 peptide … (peptide 1142.03) (peptide)
peptide: QLLWFHISCL
modifications: not checked
B13 gave a binding affinity ratio (IC50 of standard peptide / IC50 of test peptide) (HLA-A*0201 (human) [5]) of 0.006.

B14: HBV peptide … (peptide)
peptide: NAPILSTLPETTVVR
modifications: not checked
B14 gave a binding affinity ratio (IC50 of standard peptide / IC50 of test peptide) [12] of 0.0009, a binding affinity ratio (IC50 of standard peptide / IC50 of test peptide) [13] of -0.0007 and a binding affinity ratio (IC50 of standard peptide / IC50 of test peptide) [14] of -0.0002. It also gave a binding affinity ratio (IC50 of standard peptide / IC50 of test peptide) [15] of 0.0005.

B15: HBV POL 771 peptide … (peptide)
peptide: ILRGTSFVY
modifications: not checked
Work on B15 yielded a binding affinity ratio (IC50 of standard peptide / IC50 of test peptide) (HLA-A*0301 (human); [25]) of 0.044.

B16: HBV POL 768 peptide … (peptide)
peptide: YVPSALNPA
modifications: not checked
For B16, the binding affinity ratio (IC50 of standard peptide / IC50 of test peptide) (HLA-A*0201 (human) [16]) was 0.0039.

B17: HBV peptide … (peptide)
peptide: LAQFTSAICSVVRRA
modifications: not checked
For B17, the binding affinity ratio (IC50 of standard peptide / IC50 of test peptide) [17] was 0.0065, the binding affinity ratio (IC50 of standard peptide / IC50 of test peptide) [18] was -0.0009 and the binding affinity ratio (IC50 of standard peptide / IC50 of test peptide) [19] was 0.028. For the same binder, the binding affinity ratio (IC50 of standard peptide / IC50 of test peptide) [14] was 0.0076, the binding affinity ratio (IC50 of standard peptide / IC50 of test peptide) [20] was 0.001 and the binding affinity ratio (IC50 of standard peptide / IC50 of test peptide) [15] was 0.028.

B18: HBV NUC 60 peptide … (peptide)
peptide: LDTASALYR
modifications: not checked
B18 showed a binding affinity ratio (IC50 of standard peptide / IC50 of test peptide) (HLA-A*1101 (human) [21]) of -0.0002.

B19: HBV NUC 30 peptide … (peptide)
peptide: LLDTASALYR
modifications: not checked
B19 was tested, and the binding affinity ratio (IC50 of standard peptide / IC50 of test peptide) (HLA-A*0301 (human)) was 0.005.

B20: HBV ENV 175 peptide … (peptide)
peptide: LLVLQAGFF
modifications: not checked
B20 showed a binding affinity ratio (IC50 of standard peptide / IC50 of test peptide) (HLA-A*0301 (human)) of 0.0006.

B21: HBV ENV 260 peptide LLDYQGML (peptide)
peptide: LLDYQGML
modifications: not checked
In the case of B21, the binding affinity ratio (relative to standard peptide) (HLA-A*0201 (human) [5]) is reported as 0.0004.

B22: … (peptide)
peptide: ASKLCLGWLWGMDID
modifications: not checked
B22 gave a binding affinity ratio (IC50 of standard peptide / IC50 of test peptide) [1] of 0.0002, a binding affinity ratio (IC50 of standard peptide / IC50 of test peptide) [3] of -0.0002 and a binding affinity ratio (IC50 of standard peptide / IC50 of test peptide) [22] of 0.001.

B23: HBV POL 153 peptide KAGILYKR (peptide)
peptide: KAGILYKR
modifications: not checked
With B23 the binding affinity ratio (IC50 of standard peptide / IC50 of test peptide) (HLA-A*1101 (human) [21]) was -0.0002.

B24: HBV POL 569 peptide … (peptide)
peptide: HLNPNKTKR
modifications: not checked
With B24 the binding affinity ratio (IC50 of standard peptide / IC50 of test peptide) (HLA-A*0301 (human)) was 0.0025.

B25: HBV peptide … (peptide)
peptide: PLPIHTAELLAACFA
modifications: not checked
Binder B25 has a binding affinity ratio (IC50 of standard peptide / IC50 of test peptide) [12] of 0.0046 and a binding affinity ratio (IC50 of standard peptide / IC50 of test peptide) [15] of -0.0003.

B26: HBV ENV 207 … (peptide 20.0120) (peptide)
peptide: DSWWTSLNF
modifications: not checked
Work on B26 yielded a binding affinity ratio (HLA-A*0301 (human)) of 0.0006.

B27: HBV POL 581 peptide … (peptide)
peptide: SLNFMGYVI
modifications: not checked
B27 was tested, and the binding affinity ratio (IC50 of standard peptide / IC50 of test peptide) (HLA-A*0201 (human) [5]) was 0.0038.

B28: … (peptide)
peptide: VGLLGFAAPFTQCGY
modifications: not checked
B28 gave a binding affinity ratio (IC50 of standard peptide / IC50 of test peptide) [23] of 0.0008, a binding affinity ratio (IC50 of standard peptide / IC50 of test peptide) [9] of -0.0004 and a binding affinity ratio (IC50 of standard peptide / IC50 of test peptide) [24] of -0.0001.

B29: … (peptide)
peptide: DLNLGNLNVSIPWTH
modifications: not checked
B29 showed a binding affinity ratio (IC50 of standard peptide / IC50 of test peptide) [4] of 0.001.

B30: HBV ENV 330 peptide … (peptide)
peptide: SVRFSWLSLL
modifications: not checked
In the case of B30, the binding affinity ratio (IC50 of standard peptide / IC50 of test peptide) (HLA-A*0201 (human) [5]) is reported as 0.0004.

B31: HBV POL 393 peptide … (peptide)
peptide: WPKFAVPNL
modifications: not checked
B31 showed a binding affinity ratio (IC50 of standard peptide / IC50 of test peptide) (HLA-B*0702 (human); [25]) of 0.0054, a binding affinity ratio (IC50 of standard peptide / IC50 of test peptide) (HLA-B*5101 (human)) of 0.0016 and a binding affinity ratio (IC50 of standard peptide / IC50 of test peptide) (HLA-B*5401 (human)) of 0.0015.

B32: … (peptide)
peptide: RDLLDTASALYREAL
modifications: not checked
B32 showed a binding affinity ratio (IC50 of standard peptide / IC50 of test peptide) [8, 25] of 0.0001 and a binding affinity ratio (IC50 of standard peptide / IC50 of test peptide) [10, 25] of 0.077.

B33: HBV POL 357 peptide … (peptide)
peptide: RVTGGVFLV
modifications: not checked
B33 was tested, and the binding affinity ratio (IC50 of standard peptide / IC50 of test peptide) (HLA-A*0201 (human) [5]; [25]) was 0.0041.
